Assays:
[1] = target: SARS-CoV-2 Omicron BA.1 RBD, yeast-displayed (SARS-CoV-2, UniProt P0DTC2); experiment: flow cytometry on cells; conditions: one partner purified
[2] = target: SARS-CoV-2 Omicron BA.2 RBD, yeast-displayed (SARS-CoV-2, UniProt P0DTC2); experiment: flow cytometry on cells; conditions: one partner purified

B1: CDY14HL-Fc1 (Fc fusion)
chain: QSTIEEQAKTFLDMFNHKAEDLFYQSSLAAWNYNTNITEENVQNMNNAGDKWSAFLKEQSTFAQMYPLQEIQNPTVKLQLQALQQNGSSVLSEDKSKRLNTILNTMSTIYSTGKVCNPDNPQECLLLEPGLNEIMANSLDYNERLWAWESWRSEVGKQLRPLYEEYVVLKNEMARANHYEDYGDYWRGDYEVNGVDGYDYSRGQLIEDVEHTFEEIKPLYEHLHAYVRAKLMNAYPSYISPIGCLPAHLLGDMWGRFWTNLYSLTVPFGQKPNIDVTDAMVDQAWDAQRIFKEAEKFFVSVGLPNMTQGFWEYSMLTDPGNVQKAVCLPTAWDLGKGDFRILMCTKVTMDDFLTAHHEMGHIQYDMAYAAQPFLLRNGANEGFHEAVGEIMSLSAATPKHLKSIGLLSPDFQEDNETEINFLLKQALTIVGTLPFTYMLEKWRWMVFKGEIPKDQWMKKWWEMKREIVGVVEPVPHDETYCDPASLFHVSNDYSFIRYYTRTLYQFQFQEALCQAAKHEGPLHKCDISNSTEAGQKLFNMLRLGKSEPWTLALENVVGAKNMNVRPLLNYFEPLFTWLKDQNKNSFVGWSTDWSPYAD
Kd [1]: 31 pM | Kd [2]: 24 pM

From article PMC9409550 (PLoS ONE, 2022)
